Where “and” joins values, the source holds several entries; their conditions need not be identical. Equal entries are not always repeated.
Assay: Pharmacokinetic study of intranasal tissue kallikrein (125I-KLK1 tissue concentrations by gamma counting)
Format: in vivo
Details: rat, 30 min. end point, individual animal, listed as kallikrien
Description: The purpose of this study was to quantify the amount of tissue kallikrein (KLK1) reaching the central nervous system and peripheral tissues after intranasal administration to anesthetized rats. At 30 min after KLK1 administration, animals were transcardially perfused with ice-cold saline followed by paraformaldehyde fixative and tissues were dissected. The amount of radiolabeled KLK1 in each tissue sample was quantified by gamma counting and tissue concentrations were calculated using tissue weight and gamma counting of standards of the dosing solutions
Adult male Sprague Dawley rats (n=10, mean 335.4 g±4.57 g SE) were used for this study. Animals were group housed in the Regions Hospital Animal Care Facility with free access to food and water. Animals were kept on a 12 h light cycle. All experimental procedures were approved by the Animal Care and Use Committee at Regions Hospital under IACUC protocol number 08-022.
Tissue kallikrein was sent to Perkin-Elmer for ^125I-labelling (Quote NEX-084, lot C1541583). Non-labeled KLK1 from Sigma (cat#K3627-1KU, lot 018K1441) was also used. Non-labeled KLK1 was dissolved in 1×PBS (10×PBS, Sigma, cat #P5493, lot 027K8405 diluted in sterile water). The average dose was 48.1 μL, 75 μCi, and 2.6 mg.
• a. Prior to anesthesia, each rat was weighed. • b. An anesthesia cocktail was prepared and full, half, and quarter anesthesia doses were calculated according to the animal's weight with a full dose containing 30 mg/kg ketamine, 6 mg/kg xylazine, and 1 mg/kg acepromazine. • c. A 1-cc syringe fitted with a 25 G or 27 G, ½ inch needle was assembled and a full dose was drawn into the syringe for injection. • d. Rats were restrained in a towel as follows. Rats were placed ventral side down in the middle of a hand towel. The towel was then wrapped around the head and shoulders to restrain. Wrapped animals remained ventral side down while the left hind leg was located. • e. The left hind leg was drawn to the side and the needle was inserted just beneath the skin (subcutaneous) above the thigh. After ensuring that the needle was placed subcutaneously (and not intramuscularly), full doses were injected. Rats were placed in holding cages and the injection time noted. Animals should be under within 5 min. • f. Anesthesia was monitored throughout the procedures by assessing reflexes using pinching of the hind paw or tail. If a reflex was present, a half or quarter dose booster was administered as necessary. • g. During drug administration, animals received a half dose booster roughly 20-25 min after initial dose. Intranasal Delivery of ^125I-KLK1 • a. Anesthetized rats were placed on their backs on a heating pad in a metal surgical tray. The heating pad was connected to a thermostat and was automatically regulated to maintain a 37° C. temperature based on continuous measurement from a rectal probe. • b. A 2″×2″ gauze pad was rolled tightly into a pillow, taped together, and under the neck to maintain a correct neck position horizontal with the counter. • c. A lead impregnated shield was placed between the surgical tray and the experimenter for protection against radiation. The dose solution, pipette, pipette tips, and waste receptacle were arranged behind the shield for easy access. • d. A 6 μL drop was loaded into the pipette behind the shield. • e. A cotton swab covered in parafilm was used to occlude one naris completely (the flat part of the swab was pushed gently against the naris to prevent airflow), while the 6 μL drop was expelled slowly from the pipette (held at a 45° angle from the rat's midline), forming a drop on the pipette tip. The drop was lowered onto the open naris to be inhaled. • f. After two minutes, the alternate naris was occluded and a 6 μL drop was administered in the same fashion. • g. A drop was administered as described above every two minutes to alternating nares until a total of 8 drops was delivered (4 to each naris) over 14 min. • h. […]

B1: tissue kallikrein: serine protease that cleaves kininogen into kallidin; polypeptide SEQ ID NO:1 (Sus scrofa kallikrein 1), KLK1 from Sigma (protein, listed as Sus scrofa)
chain: MWSLVMRLALSLAGTGAAPPIQSRIIGGRECEKDSHPWQVAIYHYSSFQCGGVLVDPKWVLTAAHCKNDNYQVWLGRHNLFENEVTAQFFGVTADFPHPGFNLSLLKNHTKADGKDYSHDLMLLRLQSPAKITDAVKVLELPTQEPELGSTCQASGWGSIEPGPDDFEFPDEIQCVELTLLQNTFCADAHPDKVTESMLCAGYLPGGKDTCMGDSGGPLICNGMWQGITSWGHTPCGSANKPSIYTKLIFYLDWINDTITENP
modifications: 125I label in one form
concentration in Lung (R, top lobe): 48.6 nM and 48.7 nM and 46.8 nM and 18.2 nM and 37.2 nM and 30.1 nM and 27.9 nM and 24.4 nM and 64.3 nM and 25.5 nM | concentration in Medulla: 12.3 nM and 9.9 nM and 13.99 nM and 17.4 nM and 11.1 nM and 21.0 nM and 21.1 nM and 10.6 nM and 20.5 nM and 10.8 nM | concentration in Midbrain: 12.3 nM and 9.5 nM and 13.1 nM and 15.3 nM and 10.0 nM and 15.9 nM and 9.9 nM (2×) and 16.4 nM | concentration in Muscle (R, deltoid): 24.2 nM (2×) and 17.7 nM and 17.5 nM and 15.8 nM and 12.4 nM and 16.5 nM and 23.1 nM and 29.3 nM and 33.2 nM | concentration in Occipital Cortex: 9.8 nM (2×) and 9.6 nM and 12.7 nM and 12.3 nM and 14.1 nM and 14.0 nM and 13.6 nM and 19.2 nM | concentration in Olfactory Bulbs: 44.4 nM and 39.9 nM and 128.1 nM and 168.8 nM and 66.2 nM and 220.9 nM and 123.5 nM and 74.5 nM and 157.1 nM and 48.2 nM | concentration in Olfactory Epithelium: 17,707.4 nM and 21,919.4 nM and 21,270.9 nM and 41,836.8 nM and 17,083.5 nM and 31,983.9 nM and 38,661.3 nM and 13,736.3 nM and 17,247.4 nM and 26,179.4 nM | concentration in Optic Chiasm: 20.7 nM and 14.4 nM and 41.3 nM and 34.7 nM and 51.4 nM and 8.4 nM and 38.2 nM and 27.0 nM and 28.7 nM | concentration in Parietal Cortex: 7.5 nM and 8.5 nM and 10.5 nM and 9.0 nM and 10.1 nM and 18.5 nM and 14.3 nM and 12.8 nM and 17.6 nM and 12.3 nM | concentration in Pituitary: 86.9 nM and 44.0 nM and 58.9 nM and 51.8 nM and 79.3 nM and 59.7 nM and 44.3 nM and 67.9 nM and 48.1 nM | concentration in Pons: 12.4 nM and 10.0 nM and 13.9 nM and 16.2 nM and 10.1 nM and 22.0 nM and 18.6 nM and 10.6 nM and 20.4 nM and 10.2 nM | concentration in Posterior Trigeminal Nerve: 82.3 nM and 37.8 nM and 60.5 nM and 48.7 nM and 47.7 nM and 50.2 nM and 35.9 nM and 70.5 nM and 32.6 nM | concentration in Renal artery (L): 56.2 nM and 67.3 nM and 103.1 nM and 52.8 nM and 55.8 nM and 26.1 nM and 43.0 nM and 78.9 nM and 66.9 nM and 31.2 nM | concentration in Respiratory Epithelium: 78,502.7 nM and 75,759.2 nM and 26,815.1 nM and 82,292.8 nM and 126,759.8 nM and 34,402.4 nM and 71,775.8 nM and 107,890.6 nM and 91,206.0 nM and 64,295.5 nM | concentration in Septal Nucleus: 9.5 nM and 8.2 nM and 13.3 nM and 13.6 nM and 10.2 nM and 19.4 nM and 12.9 nM and 9.8 nM and 12.0 nM | concentration in Spinal Dura: 23.1 nM and 26.3 nM and 36.1 nM and 21.4 nM and 16.9 nM and 26.6 nM and 26.2 nM and 39.7 nM and 20.1 nM and 29.5 nM | concentration in Spleen (tip): 29.0 nM and 81.5 nM and 35.1 nM and 87.5 nM and 91.1 nM and 82.9 nM and 75.4 nM and 89.8 nM and 73.8 nM and 80.0 nM | concentration in Striatum: 8.2 nM and 5.5 nM and 8.5 nM and 6.7 nM and 7.23 nM and 14.9 nM and 10.4 nM and 9.5 nM and 15.1 nM and 11.9 nM | concentration in Superficial Nodes (2): 58.8 nM and 39.9 nM and 42.2 nM and 60.1 nM and 66.8 nM and 69.0 nM and 94.2 nM and 68.9 nM and 68.0 nM | concentration in Temporal Cortex: 9.9 nM and 7.8 nM and 11.65 nM and 10.4 nM and 14.2 nM and 16.6 nM and 15.6 nM and 12.5 nM and 13.7 nM and 11.5 nM | concentration in Thalamus: 7.9 nM and 6.7 nM and 12.2 nM (2×) and 10.5 nM and 8.1 nM and 15.4 nM and 14.0 nM and 7.2 nM and 9.1 nM | concentration in Thoracic Spinal Cord: 5.5 nM and 5.1 nM and 6.7 nM and 4.5 nM and 4.2 nM and 6.5 nM and 4.7 nM and 5.7 nM and 4.1 nM and 5.0 nM | concentration in Thyroid: 1,730.9 nM and 2,077.1 nM and 2,106.5 nM and 1,369.2 nM and 2,644.1 nM and 2,380.4 nM and 1,219.8 nM and 2,016.7 nM and 2,148.4 nM and 2,013.3 nM | concentration in Trachea: 58.5 nM and 116.8 nM and 64.5 nM and 93.6 nM and 44.8 nM and 59.3 nM and 65.1 nM and 110.6 nM and 86.4 nM | concentration in Upper Cervical Spinal Cord: 16.0 nM and 17.0 nM and 18.18 nM and 31.6 nM and 18.8 nM and 35.1 nM and 37.2 nM and 20.4 nM and 27.0 nM and 12.8 nM | concentration in Urine: 249.2 nM and 79.5 nM and 190.9 nM and 57.8 nM and 51.1 nM and 65.6 nM and 287.4 nM and 95.8 nM and 139.2 nM and 90.6 nM | concentration in Ventral Dura: 113.7 nM and 71.6 nM and 29.8 nM and 138.3 nM and 165.6 nM and 259.4 nM and 192.6 nM and 150.8 nM and 211.8 nM and 96.1 nM
